Data taken from PMC7311171 (2020).

B1: BBS7, in vitro translated, tagged with a 6xMyc epitope [not stated] / GST-SMO^H8 (GST fused to the first 19 amino acids of SMO^Ctail, aa 543–559) [mouse] (parent complex)
chain 1: MDLILNRMDYLQVGVTSQKTMKLIPASRHRATQKVVIGDHDGVVMCFGMKKGEAAAVFKTLPGPKIARLELGGVINTPQEKIFIAAASEIRGFTKRGKQFLSFETNLTESIKAMHISGSDLFLSASYIYNHYCDCKDQHYYLSGDKINDVICLPVERLSRITPVLACQDRVLRVLQGSDVMYAVEVPGPPTVLALHNGNGGDSGEDLLFGTSDGKLALIQITTSKPVRKWEIQNEKKRGGILCIDSFDIVGDGVKDLLVGRDDGMVEVYSFDNANEPVLRFDQMLSESVTSIQGGCVGKDSYDEIVVSTYSGWVTGLTTEPIHKESGPGEELKINQEMQNKISSLRNELEHLQYKVLQERENYQQSSQSSKAKSAVPSFGINDKFTLNKDDASYSLILEVQTAIDNVLIQSDVPIDLLDVDKNSAVVSFSSCDSESNDNFLLATYRCQADTTRLELKIRSIEGQYGTLQAYVTPRIQPKTCQVRQYHIKPLSLHQRTHFIDHDRPMNTLTLTGQFSFAEVHSWVVFCLPEVPEKPPAGECVTFYFQNTFLDTQLESTYRKGEGVFKSDNISTISILKDVLSKEATKRKINLNISYEINEVSVKHTLKLIHPKLEYQLLLAKKVQLIDALKELQIHEGNTNFLIPEYHCILEEADHLQEEYKKQPAHLERLYG
chain 2: KATLLIWRRTWCRLTGH

Variants of: B1
Assay: GST capture assay (pull-down) of in vitro translated Myc-BBS7, quantified from anti-Myc blot; parent: 4.4; read off a plot

response | Variant
~3.6 ‰ | chain 2 W11A
~0.9 ‰ | chain 2 R8A, chain 2 C12A
~0.85 ‰ | chain 2 W7A
~1.3 ‰ | chain 2 R8A
~4.9 ‰ | chain 2 C12A
~0.28 ‰ | chain 2 W7A, chain 2 W11A
~0.12 ‰ | chain 2 W7A, chain 2 R8A, chain 2 W11A, chain 2 C12A
